Measurements reported in patent publication US20260241049A1, “Radiopharmaceutical Compositions Targeting Glypican-3 and Uses Thereof” (RayzeBio, Inc., priority 2023, published 2026).
Starred links: 1 amine or outer side, 2 acyl side, 3 side chain; linkers in the order of their positions; H or OH if unused. Positions of bridges follow the written chain, without caps; N, C: chain ends. Non-standard residues stand in square brackets, D forms with d. Groups on a side chain read outwards from the residue. Primed or numbered codes have the meaning given here. F4amCOpipzaa = 2-amino-3-(4-((4-(carboxymethyl)piperazine-1-carboxamido)methyl)phenyl)propanoic acid, O=C(NCc1ccc(C[C@H](N[*:1])C(=O)[*:2])cc1)N1CCN(CC(=O)[*:3])CC1; F4aaopipzaa = 2-amino-3-(4-(2-(4-(carboxymethyl)piperazin-1-yl)-2-oxoethoxy)phenyl)propanoic acid, O=C(COc1ccc(C[C@H](N[*:1])C(=O)[*:2])cc1)N1CCN(CC(=O)[*:3])CC1; F4aao(3) = 4-(carboxymethoxy)-L-phenylalanine ((S)-2-amino-3-(4-(carboxymethoxy)phenyl)propanoic acid), O=C([C@H](Cc1ccc(OCC(=O)[*:3])cc1)N[*:1])[*:2]; Thr(Me) = O-methyl threonine, (3R)-2-amino-3-methoxybutanoic acid, CO[C@H](C)[C@H](N[*:1])C(=O)[*:2]; MeHseMe(6) = (2S)-4-methoxy-2-(methylamino)butanoic acid, COCC[C@@H](C(=O)[*:2])N(C)[*:1]; MeHseMe = N-methyl-O-methyl-L-homoserine, COCC[C@@H](C(=O)[*:2])N(C)[*:1]; Thr(Me)(3) = TMe, O-methyl-L-threonine, CO[C@H](C)[C@H](N[*:1])C(=O)[*:2]; DOTA‑Lu(3) = DOTA chelate with cold lutetium-175, amide-linked; TMe = O-methyl-L-threonine, CO[C@H](C)[C@H](N[*:1])C(=O)[*:2]; NMeAla(isoquinolin-7-yl) = CN[C@@H](Cc1ccc2ccncc2c1)C(=O)O; Phe(4-NHCONH2) = NC(=O)Nc1ccc(C[C@H](N)C(=O)O)cc1; 3Pal(6-Ph) = N[C@@H](Cc1ccc(-c2ccccc2)nc1)C(=O)O; Phe(4-COOH) = N[C@@H](Cc1ccc(C(=O)O)cc1)C(=O)O; NMe2Nal = CN[C@@H](Cc1ccc2ccccc2c1)C(=O)O; NMeI = CC[C@H](C)[C@H](NC)C(=O)O; NMeQ = CN[C@@H](CCC(N)=O)C(=O)O; NMeK = CN[C@@H](CCCCN)C(=O)O; NMeC = CN[C@@H](CS)C(=O)O

Molecular target: T1, Human Glypican3-Fc (ACRO Biosystems, GP3-H5258) (human, UniProt P51654 25-559)
T1 construct: Bought fusion protein, captured in Methods B-2, B-3 and B-4; Catalogue number is printed only in Method B-2; not shown: Fc part of the bought fusion
Assay: SPR (Biacore T200), Method B-2: human Glypican3-Fc captured by anti-human Fc on CM3 chip, peptide as analyte
Method: A CM3 sensor chip (Cytiva) was inserted into a Biacore T200 (Cytiva), primed three times with a running buffer: HBS-P-+, pH 7.4 (Cytiva), and equilibrated at a flow rate of 30 μL/min. Using the Anti-Fc Capture Kit (Cytiva), 50 LL each of 60 mM EDC solution (Cytiva) and 650 mM NHS solution (Cytiva) were mixed, and then reacted at a flow rate of 10 μL/min for 420 seconds, 150 μL of […] Anti-human IgG (Fc) Antibody solution was prepared by diluting with 10 mM acetic acid solution (pH 5.0), reacted at a flow rate of 10 μL/min for 420 seconds, and immobilized on a CM3 sensor chip. After immobilization, 1.0 M ethanolamine aqueous solution (Cytiva) was allowed to react for 420 seconds at a flow rate of 10 μL/min for capping. Human Glypican3-Fc (ACRO Biosystems, GP3-H5258) was allowed to react for 60 seconds at a flow rate of 10 μL/min. After capturing human Glypican3-Fc, a peptide solution prepared to 10 mM in DMSO solution was diluted with a running buffer to a final concentration of 10 μM. […] Using the above samples, peptide kinetics for Glypican3 was obtained by SPR measurement. Kinetics evaluation of Glypican3 was performed by SPR measurements at a flow rate of 10 μL/min. setting the association time to 120 seconds and the disassociation time to 600 seconds.
The obtained data by Method B-1, Method B-2, Method B-3 and Method B-4 were analyzed by follow. Single Cycle Kinetics was used as the kinetics evaluation model, and curve fitting was performed using Biacore T200 Evaluation Software Version 3.0 (Cytiva).

**Q.** Which Kd does the source give for {CH2CO}-[NMeK]([dE-DOTA‑Lu(3)])[NMeI]D[NMeQ][Phe(4-COOH)]II[F4aao(3)][NMeAla(isoquinolin-7-yl)]G[3Pal(6-Ph)][NMeC]-NH2 (thioether N-12) [Lu-C-33] here?
**A.** The Kd was 0.87 nM.

B1: Macrocyclic peptide of Example 2-21 (SEQ ID No. 39) (peptide)
peptide: {CH2CO}-[NMeQ][MeHseMe]D[NMeQ][Phe(4-COOH)][Thr(Me)]I[Phe(4-NHCONH2)][NMe2Nal]G[3Pal(6-Ph)][NMeC]-NH2
modifications: thioether N-12
SMILES: CC[C@H](C)[C@@H]1NC(=O)[C@H]([C@@H](C)OC)NC(=O)[C@H](Cc2ccc(C(=O)O)cc2)NC(=O)[C@H](CCC(N)=O)N(C)C(=O)[C@H](CC(=O)O)NC(=O)[C@H](CCOC)N(C)C(=O)[C@H](CCC(N)=O)N(C)C(=O)CSC[C@@H](C(N)=O)N(C)C(=O)[C@H](Cc2ccc(-c3ccccc3)nc2)NC(=O)CNC(=O)[C@H](Cc2ccc3ccccc3c2)N(C)C(=O)[C@H](Cc2ccc(NC(N)=O)cc2)NC1=O
**Q.** Which Kd does the source give for B1 here?
**A.** The Kd was 0.4 nM.

**Q.** For Ac-[NMeK](DOTA‑Lu(3))[MeHseMe(6)]D[NMeQ][Phe(4-COOH)][TMe]IY[NMeAla(isoquinolin-7-yl)]G[3Pal(6-Ph)][NMeC]-NH2 (bridge N-12; not fully specified (bridges); also: cold Lu-175 chelated by DOTA) [Lu-C-45], which Kd is on record?
**A.** Its Kd is 0.74 nM.

B2: Lu-C-35 (peptide)
peptide: KQDQFTIFFGXC
modifications: not fully specified; MeK(DOTA-Lu)-MeQ-D-MeQ-F4COO-TMe-I-F4aao-MeNal27N-G-3Py6Ph-MeC-NH2; thioether ring from N-terminal acetyl to MeC12
**Q.** With B2 as the binder, how does the Kd read?
**A.** The Kd was 2.03 nM.

B3: Macrocyclic peptide of Example 2-22 (SEQ ID No. 40) (peptide)
peptide: {CH2CO}-[NMeQ][MeHseMe]D[NMeQ][Phe(4-COOH)][Thr(Me)(3)]I[F4aaopipzaa][NMe2Nal]G[3Pal(6-Ph)][NMeC]-NH2
modifications: thioether N-12
SMILES: CC[C@H](C)[C@@H]1NC(=O)[C@H]([C@@H](C)OC)NC(=O)[C@H](Cc2ccc(C(=O)O)cc2)NC(=O)[C@H](CCC(N)=O)N(C)C(=O)[C@H](CC(=O)O)NC(=O)[C@H](CCOC)N(C)C(=O)[C@H](CCC(N)=O)N(C)C(=O)CSC[C@@H](C(N)=O)N(C)C(=O)[C@H](Cc2ccc(-c3ccccc3)nc2)NC(=O)CNC(=O)[C@H](Cc2ccc3ccccc3c2)N(C)C(=O)[C@H](Cc2ccc(OCC(=O)N3CCN(CC(=O)O)CC3)cc2)NC1=O
**Q.** For B3, which Kd is on record?
**A.** The Kd was 0.8 nM.

B4: Macrocyclic peptide of Example 2-20 (SEQ ID No. 38) (peptide)
peptide: {CH2CO}-[NMeQ][MeHseMe]D[NMeQ][Phe(4-COOH)][Thr(Me)]I[F4amCOpipzaa][NMe2Nal]G[3Pal(6-Ph)][NMeC]-NH2
modifications: thioether N-12
SMILES: CC[C@H](C)[C@@H]1NC(=O)[C@H]([C@@H](C)OC)NC(=O)[C@H](Cc2ccc(C(=O)O)cc2)NC(=O)[C@H](CCC(N)=O)N(C)C(=O)[C@H](CC(=O)O)NC(=O)[C@H](CCOC)N(C)C(=O)[C@H](CCC(N)=O)N(C)C(=O)CSC[C@@H](C(N)=O)N(C)C(=O)[C@H](Cc2ccc(-c3ccccc3)nc2)NC(=O)CNC(=O)[C@H](Cc2ccc3ccccc3c2)N(C)C(=O)[C@H](Cc2ccc(CNC(=O)N3CCN(CC(=O)O)CC3)cc2)NC1=O
**Q.** B4 was tested. Which Kd did it give?
**A.** The Kd was 0.7 nM.
